Laboratory results as given in IntAct's records for PubMed 11779178.

B1: Merlin (Homo sapiens), P35240-3 (parent)
chain: MAGAIASRMSFSSLKRKQPKTFTVRIVTMDAEMEFNCEMKWKGKDLFDLVCRTLGLRETWFFGLQYTIKDTVAWLKMDKKVLDHDVSKEEPVTFHFLAKFYPENAEEELVQEITQHLFFLQVKKQILDEKIYCPPEASVLLASYAVQAKYGDYDPSVHKRGFLAQEELLPKRVINLYQMTPEMWEERITAWYAEHRGRARDEAEMEYLKIAQDLEMYGVNYFAIRNKKGTELLLGVDALGLHIYDPENRLTPKISFPWNEIRNISYSDKEFTIKPLDKKIDVFKFNSSKLRVNKLILQLCIGNHDLFMRRRKADSLEVQQMKAQAREEKARKQMERQRLAREKQMREEAERTRDELERRLLQMKEEATMANEALMRSEETADLLAEKAQITEEEAKLLAQKAAEAEQEMQRIKATAIRTEEEKRLMEQKVLEAEVLALKMAEESERRAKEADQLKQDLQEAREAERRAKQKLLEIATKPTYPPMNPIPAPLPPDIPSFNLIGDSLSFDFKDTDMKRLSMEIEKEKVEYMEKSKHLQEQLNELKTEIEALKLKERETALDILHNENSDRGGSSKHNTIKKPQAQGRRPICI

Key:
[1] = variants of: B1; conditions: with eif3c_human EIF3C
HGS, O14964-2 = variants of: B1; conditions: with HGS
HGS, O14964-1 = variants of: B1; conditions: with HGS
NF2, P35240-1 = variants of: B1; conditions: with NF2, P35240-1
[2] = variants of: B1; conditions: with sptb2_human SPTBN1, Q01082
sptb2_human SPTBN1, Q01082, sequence (Q01082 whole entry): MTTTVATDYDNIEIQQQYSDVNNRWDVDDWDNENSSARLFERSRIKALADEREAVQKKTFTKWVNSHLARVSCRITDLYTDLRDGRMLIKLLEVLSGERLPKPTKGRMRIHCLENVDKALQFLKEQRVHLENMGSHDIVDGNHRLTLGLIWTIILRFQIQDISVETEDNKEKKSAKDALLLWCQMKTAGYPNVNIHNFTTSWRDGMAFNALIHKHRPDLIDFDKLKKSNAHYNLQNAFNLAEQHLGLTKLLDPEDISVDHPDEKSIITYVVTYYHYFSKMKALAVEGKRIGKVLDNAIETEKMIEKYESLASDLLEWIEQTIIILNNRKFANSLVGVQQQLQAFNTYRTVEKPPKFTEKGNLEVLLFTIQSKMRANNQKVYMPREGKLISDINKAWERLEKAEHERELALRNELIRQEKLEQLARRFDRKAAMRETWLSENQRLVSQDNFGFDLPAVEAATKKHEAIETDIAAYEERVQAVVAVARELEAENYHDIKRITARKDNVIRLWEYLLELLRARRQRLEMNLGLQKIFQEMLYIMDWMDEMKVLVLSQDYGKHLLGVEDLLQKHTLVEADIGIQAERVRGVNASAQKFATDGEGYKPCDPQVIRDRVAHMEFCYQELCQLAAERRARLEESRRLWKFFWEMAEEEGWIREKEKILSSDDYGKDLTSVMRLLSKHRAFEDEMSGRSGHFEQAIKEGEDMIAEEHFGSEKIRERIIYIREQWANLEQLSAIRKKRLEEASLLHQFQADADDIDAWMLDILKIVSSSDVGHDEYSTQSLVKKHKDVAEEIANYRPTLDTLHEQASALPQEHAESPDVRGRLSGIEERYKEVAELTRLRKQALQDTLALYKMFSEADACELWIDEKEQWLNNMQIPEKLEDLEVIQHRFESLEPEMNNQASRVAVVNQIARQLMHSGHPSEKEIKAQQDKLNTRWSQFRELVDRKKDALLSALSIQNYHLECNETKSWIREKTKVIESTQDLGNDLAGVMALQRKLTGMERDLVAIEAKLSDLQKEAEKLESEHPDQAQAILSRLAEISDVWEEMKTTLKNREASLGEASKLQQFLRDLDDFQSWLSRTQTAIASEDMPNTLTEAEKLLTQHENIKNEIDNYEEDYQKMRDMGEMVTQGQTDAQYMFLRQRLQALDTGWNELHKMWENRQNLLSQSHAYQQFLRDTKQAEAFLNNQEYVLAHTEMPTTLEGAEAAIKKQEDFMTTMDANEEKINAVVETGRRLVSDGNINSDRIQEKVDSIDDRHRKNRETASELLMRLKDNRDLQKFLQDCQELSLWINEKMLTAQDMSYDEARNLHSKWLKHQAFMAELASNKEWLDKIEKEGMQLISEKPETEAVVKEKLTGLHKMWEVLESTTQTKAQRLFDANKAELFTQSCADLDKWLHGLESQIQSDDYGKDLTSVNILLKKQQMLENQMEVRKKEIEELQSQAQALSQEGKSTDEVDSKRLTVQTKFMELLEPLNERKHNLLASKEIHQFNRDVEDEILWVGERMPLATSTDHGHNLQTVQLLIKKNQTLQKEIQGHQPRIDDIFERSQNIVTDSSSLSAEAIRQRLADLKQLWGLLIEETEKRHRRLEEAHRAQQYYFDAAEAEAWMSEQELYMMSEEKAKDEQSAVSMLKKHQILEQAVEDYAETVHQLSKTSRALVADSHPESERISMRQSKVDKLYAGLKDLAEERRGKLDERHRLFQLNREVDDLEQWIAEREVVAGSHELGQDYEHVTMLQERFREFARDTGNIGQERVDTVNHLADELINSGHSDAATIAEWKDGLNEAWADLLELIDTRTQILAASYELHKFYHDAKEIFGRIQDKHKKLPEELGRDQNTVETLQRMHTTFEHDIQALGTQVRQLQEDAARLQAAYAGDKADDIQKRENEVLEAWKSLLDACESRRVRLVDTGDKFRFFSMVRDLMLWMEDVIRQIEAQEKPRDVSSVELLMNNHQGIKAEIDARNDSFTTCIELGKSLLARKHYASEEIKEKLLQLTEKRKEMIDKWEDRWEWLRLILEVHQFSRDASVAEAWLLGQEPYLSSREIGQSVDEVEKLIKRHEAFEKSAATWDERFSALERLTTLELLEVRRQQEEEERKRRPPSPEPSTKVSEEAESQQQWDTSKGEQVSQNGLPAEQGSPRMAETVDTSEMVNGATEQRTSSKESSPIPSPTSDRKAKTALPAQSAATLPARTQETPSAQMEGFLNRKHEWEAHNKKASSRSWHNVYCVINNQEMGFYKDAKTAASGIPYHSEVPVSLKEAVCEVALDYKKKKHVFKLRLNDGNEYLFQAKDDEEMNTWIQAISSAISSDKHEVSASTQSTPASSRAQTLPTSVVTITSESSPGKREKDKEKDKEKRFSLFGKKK

HGS, O14964-2, sequence (O14964 other isoform, or with tags, fused parts or gaps): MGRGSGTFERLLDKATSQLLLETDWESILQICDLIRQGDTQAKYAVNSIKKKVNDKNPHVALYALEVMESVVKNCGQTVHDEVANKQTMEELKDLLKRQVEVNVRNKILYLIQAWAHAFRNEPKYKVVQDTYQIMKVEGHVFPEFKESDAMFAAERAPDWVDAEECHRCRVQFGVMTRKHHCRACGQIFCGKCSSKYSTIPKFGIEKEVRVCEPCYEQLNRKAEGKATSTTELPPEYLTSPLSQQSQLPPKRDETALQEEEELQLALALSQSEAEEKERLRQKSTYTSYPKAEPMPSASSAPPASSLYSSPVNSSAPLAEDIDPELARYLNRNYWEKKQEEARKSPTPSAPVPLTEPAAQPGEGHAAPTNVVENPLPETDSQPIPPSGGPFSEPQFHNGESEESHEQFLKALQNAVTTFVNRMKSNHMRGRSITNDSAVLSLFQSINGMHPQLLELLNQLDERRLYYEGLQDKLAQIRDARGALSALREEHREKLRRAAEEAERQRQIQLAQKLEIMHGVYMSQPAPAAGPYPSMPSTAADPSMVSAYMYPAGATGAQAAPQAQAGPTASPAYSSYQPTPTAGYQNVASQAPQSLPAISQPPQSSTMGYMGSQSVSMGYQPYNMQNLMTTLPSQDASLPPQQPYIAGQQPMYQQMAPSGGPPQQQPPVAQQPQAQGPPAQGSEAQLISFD
HGS, O14964-1, sequence (O14964 whole entry): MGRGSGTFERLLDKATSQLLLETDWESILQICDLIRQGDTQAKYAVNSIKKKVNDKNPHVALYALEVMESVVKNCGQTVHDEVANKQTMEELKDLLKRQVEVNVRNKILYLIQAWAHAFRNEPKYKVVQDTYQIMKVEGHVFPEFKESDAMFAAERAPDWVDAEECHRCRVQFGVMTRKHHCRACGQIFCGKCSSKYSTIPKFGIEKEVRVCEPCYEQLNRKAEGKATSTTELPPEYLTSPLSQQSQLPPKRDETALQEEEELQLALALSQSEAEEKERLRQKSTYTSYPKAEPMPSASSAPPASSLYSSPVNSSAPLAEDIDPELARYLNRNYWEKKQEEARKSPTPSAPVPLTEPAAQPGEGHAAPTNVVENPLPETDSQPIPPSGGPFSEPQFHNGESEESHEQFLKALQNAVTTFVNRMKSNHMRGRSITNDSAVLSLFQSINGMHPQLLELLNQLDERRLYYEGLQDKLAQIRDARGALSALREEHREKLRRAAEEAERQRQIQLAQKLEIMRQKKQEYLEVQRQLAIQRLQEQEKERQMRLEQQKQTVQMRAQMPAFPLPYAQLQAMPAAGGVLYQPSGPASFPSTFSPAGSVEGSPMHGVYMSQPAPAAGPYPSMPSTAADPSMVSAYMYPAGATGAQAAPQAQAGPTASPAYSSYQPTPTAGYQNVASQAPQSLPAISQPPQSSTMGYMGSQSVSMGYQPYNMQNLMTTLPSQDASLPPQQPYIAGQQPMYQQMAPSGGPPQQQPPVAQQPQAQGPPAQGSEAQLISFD

Variant	effect of a mutation on the interaction [1]	effect of a mutation on the interaction (HGS, O14964-2)	effect of a mutation on the interaction (HGS, O14964-1)	effect of a mutation on the interaction (NF2, P35240-1)	effect of a mutation on the interaction [2]
MAGAIASRMSFSSLKRKQPKTFTVRIVTMDAEMEFNCEMKCKGKDLFDLVCRTLGLRETWFFGLQYTIKDTVAWLKMDKKVLDHDVSKEEPVTFHFLAKFYPENAEEELVQEITQHLFFLQVKKQILDEKIYCPPEASVLLASYAVQAKYGDYDPSVHKRGFLAQEELLPKRVINLYQMTPEMWEERITAWYAEHRGRARDEAEMEYLKIAQDLEMYGVNYFAIRNKKGTELLLGVDALGLHIYDPENRLTPKISFPWNEIRNISYSDKEFTIKPLDKKIDVFKFNSSKLRVNKLILQLCIGNHDLFMRRRKADSLEVQQMKAQAREEKARKQMERQRLAREKQMREEAERTRDELERRLLQMKEEATMANEALMRSEETADLLAEKAQITEEEAKLLAQKAAEAEQEMQRIKATAIRTEEEKRLMEQKVLEAEVLALKMAEESERRAKEADQLKQDLQEAREAERRAKQKLLEIATKPTYPPMNPIPAPLPPDIPSFNLIGDSLSFDFKDTDMKRLSMEIEKEKVEYMEKSKHLQEQLNELKTEIEALKLKERETALDILHNENSDRGGSSKHNTIKKPQAQGRRPICI [W41C]	with no effect	with no effect	with no effect	decreasing interaction strength	increasing interaction strength
MAGAIASRMSFSSLKRKQPKTFTVRIVTMDAEMEFNCEMKWKGKDRFDLVCRTLGLRETWFFGLQYTIKDTVAWLKMDKKVLDHDVSKEEPVTFHFLAKFYPENAEEELVQEITQHLFFLQVKKQILDEKIYCPPEASVLLASYAVQAKYGDYDPSVHKRGFLAQEELLPKRVINLYQMTPEMWEERITAWYAEHRGRARDEAEMEYLKIAQDLEMYGVNYFAIRNKKGTELLLGVDALGLHIYDPENRLTPKISFPWNEIRNISYSDKEFTIKPLDKKIDVFKFNSSKLRVNKLILQLCIGNHDLFMRRRKADSLEVQQMKAQAREEKARKQMERQRLAREKQMREEAERTRDELERRLLQMKEEATMANEALMRSEETADLLAEKAQITEEEAKLLAQKAAEAEQEMQRIKATAIRTEEEKRLMEQKVLEAEVLALKMAEESERRAKEADQLKQDLQEAREAERRAKQKLLEIATKPTYPPMNPIPAPLPPDIPSFNLIGDSLSFDFKDTDMKRLSMEIEKEKVEYMEKSKHLQEQLNELKTEIEALKLKERETALDILHNENSDRGGSSKHNTIKKPQAQGRRPICI [L46R]	disrupting interaction strength	decreasing interaction strength	decreasing interaction strength	disrupting interaction strength	disrupting interaction strength
